Reference: publication PMC4956467

Experiments:
Assay in all cases: BLI
[1] = target: HIV-1 viral infectivity factor (Vif), full length, refolded, biotinylated (HIV-1) (UniProt P12504)
A3Fc-CD2 Y307A = A3Fc-CD2 Y307A (human, UniProt Q9HC16 197-221+Q8IUX4:220-373, Y307A;internal_change)
A3Fc-CD2 W310A = A3Fc-CD2 W310A (human, UniProt Q9HC16 197-221+Q8IUX4:220-373, W310A;internal_change)
A3Fc-CD2 Y314A = A3Fc-CD2 Y314A (human, UniProt Q9HC16 197-221+Q8IUX4:220-373, Y314A;internal_change)
A3Fc-CD2 D313A = A3Fc-CD2 D313A (human, UniProt Q9HC16 197-221+Q8IUX4:220-373, D313A;internal_change)
A3Fc-CD2 Y308A = A3Fc-CD2 Y308A (human, UniProt Q9HC16 197-221+Q8IUX4:220-373, Y308A;internal_change)
A3Fc-CD2 F309A = A3Fc-CD2 F309A (human, UniProt Q9HC16 197-221+Q8IUX4:220-373, F309A;internal_change)

Row | Molecule | Kd [1] [µM] | Kd (A3Fc-CD2 Y307A) [µM] | Kd (A3Fc-CD2 W310A) [µM] | Kd (A3Fc-CD2 Y314A) [µM] | Kd (A3Fc-CD2 D313A) [µM] | Kd (A3Fc-CD2 Y308A) [µM] | Kd (A3Fc-CD2 F309A) [µM]
1 | chimeric A3F C-terminal domain (A3Fc-CD2), wild type (from UniProt Q9HC16 197-221; Q8IUX4 218-373) (domain or fragment) | 1.1 | – | – | – | – | – | –
2 | A3Fc-CD2 L263A (from UniProt Q9HC16 197-221; Q8IUX4 218-373) (domain or fragment) | 1.1 | – | – | – | – | – | –
3 | TCCCTCAGACCCTTTTAGTCAGTGTGGAAAATCTCTAGCAGT (ssDNA) [42-mer ssDNA, viral U5 end of 3'-LTR] | – | 410 | 27 | 68 | 220 | 18 | 31
